Substrate: Nc1nc(N[C@@H]2O[C@H](COP(=O)(O)O)[C@@H](O)[C@H]2O)c(NC=O)c(=O)[nH]1
Experiment: formamidase assay, fluorescence HPLC of derivatized product (DARoPP / formate)
Assay type: biochemical, Sinorhizobium meliloti
Conditions: 50 mM TES pH 7.2, 10% glycerol, 0.25 mM DTT, 1 mM MgCl2, 30 °C, 8 min

B1: Sm-BrbF (SMc02977) (Sinorhizobium meliloti 1021) (protein)
chain: MSLPKPRWTDNSAALEPVERRDWIAVLPLGAHEQHGPHLPFETDRLIAAGIVERVIAALPQALPVTFLPVEPVGYSIEHMDVSGTRTLAYDEAIERWLGIAESLAGLGVRKFVMLNAHGGNSPLMTIVATEARIRFRMLAVATSWTRFGQPDGWISAKDKAVDIHGGDIETSVMLALHPDKVDMAKARAFPSRQGEFALSFKHLRAYGPHAFGWKMSDLNPDGVAGNAAAATAERGEALLAHAAKGIIELLEDVNAFDAGELD
notes: full ORF in pET-30 Ek/LIC, E. coli BL21; His tag cleaved with enterokinase, untagged
B1 gave a Km of 152.44 ± 33.59 µM.

— publication PMC9478397
